B1: TRAF3IP2 (parent)
chain: YGHDYPRAAYQQVIQPALPGQPLP

Variants of: B1
Assay: protein stability index of a GFP-peptide fusion (GPS, HEK-293T) (PSI 1-6); higher = more stable
Conditions: c terminus: a fixed tail appended
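Also: lentivirally expressed fusions sorted by FACS into six bins by GFP to DsRed ratio, PSI derived from sequencing read proportions per bin multiplied by bin number.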

Variant	protein stability index
KGHDYPRAAYQQVIQPALPGQPLP	3.79
FGHDYPRAAYQQVIQPALPGQPLP	2.12
RGHDYPRAAYQQVIQPALPGQPLP	3.71
IGHDYPRAAYQQVIQPALPGQPLP	3.52
VGHDYPRAAYQQVIQPALPGQPLP	4.01
HGHDYPRAAYQQVIQPALPGQPLP	4.03
GGHDYPRAAYQQVIQPALPGQPLP	3.63
YGHDYPRAAYQQVIQPQLPGQPLP	1.72
YGHDYPRAAYQQVIQPILPGQPLP	2.37
YGHDYPRAAYQQVIQPTLPGQPLP	2.62
YGHDYPRAAYQQVIQPHLPGQPLP	2.08
YGHDYPRAAYQQVIQPAYPGQPLP	2.26
YGHDYPRAAYQQVIQPACPGQPLP	1.86
YGHDYPRAAYQQVIQPAKPGQPLP	2.15
YGHDYPRAAYQQVIQPAVPGQPLP	1.65
YGHDYPRAAYQQVIQPAMPGQPLP	1.9
YGHDYPRAAYQQVIQPAQPGQPLP	2.24
YGHDYPRAAYQQVIQPARPGQPLP	2.12
YGHDYPQAAYQQVIQPALPGQPLP	2.56
YGHDYPLAAYQQVIQPALPGQPLP	2.27
YGHDYPFAAYQQVIQPALPGQPLP	2.2
YGHDYPPAAYQQVIQPALPGQPLP	2.41
YGHDYPRAAYQTVIQPALPGQPLP	1.7
YGHDYPRAAYQEVIQPALPGQPLP	1.48

Variant	protein stability index
YGHDYPRAAYQRVIQPALPGQPLP	2.17
YGHDYPRAAYQQVIQPALPGQPAP	2.62
YGHDYPRAAYQQVIQPALPGQPGP	1.77
YGHDYPRAAYQQVIQPALPGQPFP	2.15
YGHDYPRAAYQQVIQPALPGQGLP	3.86
YGHDYPRAAYQQVIQPALPGQALP	1.93
YGHDYPRAAYQQVIQPALPGQDLP	1.34
YGHDYPRAAYQQVIQPALPGQVLP	1.8
YGHDYPRAAYQQVIQPALPGQCLP	1.62
YGHDYPRAAYQQVIQPALPGQKLP	2.17
YGHDYPRPAYQQVIQPALPGQPLP	2.35
YGHDYPRHAYQQVIQPALPGQPLP	3.06
YGHDYPRQAYQQVIQPALPGQPLP	2.65
YGHDYPRFAYQQVIQPALPGQPLP	2.94
YGHDYPRSAYQQVIQPALPGQPLP	1.93
YGHDYPRAATQQVIQPALPGQPLP	1.97
YGHDYPRAANQQVIQPALPGQPLP	1.85
YGHDYPRAAWQQVIQPALPGQPLP	1.75
YGHDYPRAAFQQVIQPALPGQPLP	2.33
YGHDYPRAASQQVIQPALPGQPLP	1.75
YGHDYGRAAYQQVIQPALPGQPLP	3.41
YGHDYSRAAYQQVIQPALPGQPLP	2.6
YGHDYYRAAYQQVIQPALPGQPLP	2.96
YGHDYCRAAYQQVIQPALPGQPLP	2.26

Variant	protein stability index
YGHDYERAAYQQVIQPALPGQPLP	2.82
YGHNYPRAAYQQVIQPALPGQPLP	2.42
YGHHYPRAAYQQVIQPALPGQPLP	1.94
YGHAYPRAAYQQVIQPALPGQPLP	1.55
YGHKYPRAAYQQVIQPALPGQPLP	2.7
YGHDYPRAAYQQVIQPALPGHPLP	1.37
YGHDYPRAAYQQVIQPALPGYPLP	1.88
YGHDYPRAAYQQVIQWALPGQPLP	3.06
YGHDYPRAAYQQVIQCALPGQPLP	2.35
YGHDYPRAAYQQVIQEALPGQPLP	2.25
YGHDYPRAAYQQVIQRALPGQPLP	1.71
YGHDYPRAAYQQVIQYALPGQPLP	2.81
YGHDYPRAAYQQVIPPALPGQPLP	2.45
YGHDYPRAAYQQVIFPALPGQPLP	2.68
YGHDYPRAAYQQVIDPALPGQPLP	2.6
YGHDYPRAAYQQVIAPALPGQPLP	1.74
YGHDYPRAAYQQVITPALPGQPLP	1.62
YGHDYPRAQYQQVIQPALPGQPLP	2.2
YGHDYPRASYQQVIQPALPGQPLP	1.71
YGHDYPRATYQQVIQPALPGQPLP	1.97
YGHDYPRAIYQQVIQPALPGQPLP	1.52
YGHDYPRAAYQQFIQPALPGQPLP	2.38
YGHDYPRAAYQQIIQPALPGQPLP	1.98
YGHDYPRAAYQQPIQPALPGQPLP	2.52

Variant	protein stability index
YGHDYPRAAYQQKIQPALPGQPLP	1.75
YGHDYPRAAYQQRIQPALPGQPLP	1.93
YGHDYPRAAYQQWIQPALPGQPLP	2.4
YGHDYPRAAYQQQIQPALPGQPLP	2.25
YGHDYPRAAYQQGIQPALPGQPLP	2.45
YGPDYPRAAYQQVIQPALPGQPLP	4.18
YGFDYPRAAYQQVIQPALPGQPLP	2.08
YGMDYPRAAYQQVIQPALPGQPLP	1.77
YGNDYPRAAYQQVIQPALPGQPLP	1.83
YGKDYPRAAYQQVIQPALPGQPLP	2.5
YGTDYPRAAYQQVIQPALPGQPLP	1.73
YGHDYPRAAYPQVIQPALPGQPLP	1.69
YGHDYPRAAYYQVIQPALPGQPLP	2.52
YGHDYPRAAYQQVIQPALDGQPLP	1.98
YGHDYPRAAYQQVIQPALYGQPLP	1.87
YGHDYPRAAYQQVIQPALSGQPLP	2.45
YGHDYPRAAYQQVIQPALPGQPLC	2
YGHDYPRAAYQQVIQPALPGQPLL	2.84
YGHDYPRAAYQQVIQPALPGQPLQ	1.76
YGHDYPRAAYQQVIQPALPGQPLS	1.43
YGHDYPRAAYQQVIQPALPGQPLV	2.09
YGHDCPRAAYQQVIQPALPGQPLP	3.5
